The values that follow come from patent US20260258115A1 (MAPP BIOPHARMACEUTICAL, published 2026).

Positions count from the first letter of the chain named.

The target of experiment [1] is T1, RSV prefusion F (preF), subtype B (respiratory syncytial virus subtype B).
T1 construct: also called Prefusion subtype B
The experiment is described as follows: BLI, IgG.

Experiment [2] concerns the target RSV F on RSV subtype A virus (mKate-RSV A2) (respiratory syncytial virus A2, UniProt P03420 26-574). The experiment is described as follows: cell-based or functional assay.
For experiment [3], the target named is RSV F on RSV subtype B virus (mKate-RSV B 18537) (respiratory syncytial virus B 18537, UniProt P13843 26-574). Kind of experiment: cell-based or functional assay.
For experiment [4], the target named is T2, RSV postfusion F (postF), subtype A (respiratory syncytial virus subtype A, UniProt P03420 26-513).
T2 construct: also called Postfusion subtype A; F deltaFP
Kind of experiment: BLI.

B1: ADI-24849 (antibody, V domains shown)
VH: QVQLVQSGGVVVQPGGSLRLSCAASGFTFDDYTMHWVRQAPGKGLEWVSLIGWDGGSTYYADSVKGRFTISRDNSKYSLYLQMNSLRTEDTALYYCAKDLGSSSGYFLGRDYYGMDVWGQGTTVTVSS
VL: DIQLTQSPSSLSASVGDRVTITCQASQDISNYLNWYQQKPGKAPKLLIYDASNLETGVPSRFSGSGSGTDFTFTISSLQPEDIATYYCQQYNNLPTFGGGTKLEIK
notes: full-length IgG; also called Ab 410
B1 showed a Kd in experiment [1] of 1.17 nM. Further, the “Neut IC50 subtype A” value in experiment [2] came to 0.01 µg/mL. The “Neut IC50 subtype B” value in experiment [3] worked out at 0.03 µg/mL. Moreover, in experiment [4], the binding result was “no binding”.

B2: ADI-24831 (antibody, V domains shown)
VH: QVQLVESGGGLVKPGGSLRLSCAASGFTFSSYSMNWVRQAPGKGLEWVSSISSSSSYIYYADSVKGRFTISRDNAKNSLYLQMNSLRAEDTAVYYCARVPSDFWSGYYNDYWGQGTLVTVSS
VL: QSVLTQPPSVSGAPGQRVTISCTGSSSNIGAGYDVHWYQQLPGTAPKLLIYGNSNRPSGVPDRFSGSKSGTSASLAITGLQAEDEADYYCQSYDSSLSGSWVFGGGTKLTVL
notes: full-length IgG; also called Ab 393
The molecule B2 registered a Kd in experiment [1] of 6.23 nM. Further, the “Neut IC50 subtype A” value in experiment [2] worked out at 0.21 µg/mL. In addition, in experiment [3], the “Neut IC50 subtype B” value is 3.29 µg/mL. Besides, the binding result in experiment [4] is given as “no binding”.

B3: ADI-25495 (antibody, V domains shown)
VH: QVQLVQSGGGLVKPGGSLRLSCAASGFTFSSYSMNWVRQAPGKGLEWVSSISSSSSYIYYADSVKGRFTISRDNAKNSLYLQMNSLRAEDTAVYYCARGYCTNGVCYLDAFDIWGQGTTVTVSS
VL: QSVLIQPASVSGSPGQSITISCTGTSSDVGGYNYVSWYQQHPGKAPKLMIYDVSNRPSGVSNRFSGSKSGNTASLTISGLQAEDEADYYCSSYTSSSTPVVFGGGTKVTVL
notes: full-length IgG
With B3, the Kd in experiment [1] amounted to 6.41 nM. The “Neut IC50 subtype A” value in experiment [2] amounted to 0.24 µg/mL. Further, the “Neut IC50 subtype B” value in experiment [3] is 5.6 µg/mL. Also, in experiment [4], the binding result is recorded as “no binding”.

B4: ADI-19475 (antibody, V domains shown)
VH: EVQLLESGAEVKKPGASVKVTCKASGYTFTHFGINWVRQAPGQGLEWLGWISAYNGNTNYVQKIQGRVTMTTDTSTNTAYMELRSLRSDDTAVYYCARGPPVEAAGTFDYWGQGTLVTVSS
VL: DIVLTQSPLSLPVTLGQPASISCRSSQSLVYSDGNTYLTWFQQRPGQSPRRLIYKVSNRDSGVPDRFSGSGSGTDFTLQISRVEAEDVGVYYCMQGTHWPFTFGPGTKVEIK
notes: full-length IgG
Consider B4, for which binding in experiment [1] was put at a Kd of 4.25 nM. Further, the “Neut IC50 subtype A” value in experiment [2] is 0.05 µg/mL. Moreover, the “Neut IC50 subtype B” value in experiment [3] was determined as 0.04 µg/mL. Also, the binding result in experiment [4] is on record as “no binding”.

B5: ADI-24817 (antibody, V domains shown)
VH: EVQLVESGGGLVKPGGSLRLSCAASGFTFSSYSMNWVRQAPGKGLEWVSSISSSSSYIYYADSVKGRFTISRDNAKNSLYLQMNSLRAEDTAVYYCARDSMALLYSNYWFDPWGQGTLVTVSS
VL: QSVVTQPPSVSGAPGQRVTISCTGSSSNIGAGYDVHWYQQLPGTAPKLLIYGNSNRPSGVPDRFSGSKSGTSASLAITGLQAEDEADYYCQSYDSSLSGSVFGGGTKLTVL
notes: full-length IgG
Turning to B5, the Kd in experiment [1] stood at 9.23 nM. Besides, the “Neut IC50 subtype A” value in experiment [2] came out at 2.2 µg/mL. The “Neut IC50 subtype B” value in experiment [3] is 4.4 µg/mL. Also, in experiment [4], the binding result was “no binding”.

B6: ADI-24832 (antibody, V domains shown)
VH: EVQLVESGGGLVKPGGSLRLSCAASGFTFSSYSMNWVRQAPGKGLEWVSSISASSSYIFYSDLVKGRFTISRDNAKNSLYLQMNSLRAEDTAVYYCARAGYYYGSGSYYVDYWGQGTLVTVSS
VL: B5 VL with V4L, T19A, D94G, S100W
notes: full-length IgG
Molecule B6 showed a Kd in experiment [1] of 1.95 nM. Further, the “Neut IC50 subtype A” value in experiment [2] was 0.49 µg/mL. The “Neut IC50 subtype B” value in experiment [3] is 0.24 µg/mL. For the same molecule, in experiment [4], the binding result is “no binding”.

B7: ADI-24850 (antibody, V domains shown)
VH: QVQLVQSGGGLVKPGGSLRLSCAASGFTFSSYSMNWVRQAPGKGLEWVSSISSSSSYIYYADSVKGRFTISRDNAKNSLYLQMNSLRAEDTAVYYCAREDYGDYYYYYMDVWGKGTTVTVSS
VL: B5 VL with S2P, V4L, S100Y, G104T, L108V
notes: full-length IgG
B7: the Kd in experiment [1] amounted to 5.56 nM. The “Neut IC50 subtype A” value in experiment [2] was 0.94 µg/mL. For the same molecule, the “Neut IC50 subtype B” value in experiment [3] turned out to be 4.17 µg/mL. In addition, in experiment [4], the binding result is given as “no binding”.

B8: ADI-24860 (antibody, V domains shown)
VH: EVQLLESGGGLVKPGGSLRLSCAASGLTFSDYYMSWIRQAPGKGLEWVSYISGGSSYSNYADSVKGRFTISRDNAKNSLYLQMNSLRAEDTAVYYCARGYCSGSSCYEAFDIWGQGTTVTVSS
VL: B5 VL with Q1S, S2Y, V4L, Y33F, N55D, S100Y, G104T, L108V
notes: full-length IgG; also called Ab 420
B8 showed a Kd in experiment [1] of 1.56 nM. Also, the “Neut IC50 subtype A” value in experiment [2] stood at 0.06 µg/mL. Besides, the “Neut IC50 subtype B” value in experiment [3] turned out to be 0.09 µg/mL. Moreover, the binding result in experiment [4] is on record as “no binding”.

B9: ADI-24835 (antibody, V domains shown)
VH: EVQLVESGGGLVKPGGSLRLSCAASGFPFSTSSMNWVRQAPGKGLEWVSSISSSSSYIDYADSVKGRFTISRDNAKNSLYLQMNSLRAGDTAVYYCARVPRSDWYYFDYWGQGTLVTVSS
VL: B5 VL with L48F, G52D, S54K, N55Y, S100Y, G104T
notes: full-length IgG
Take B9: the Kd in experiment [1] came to 5.55 nM. Besides, in experiment [2], the “Neut IC50 subtype A” value came to 0.63 µg/mL. The “Neut IC50 subtype B” value in experiment [3] worked out at 1.06 µg/mL. Moreover, the binding result in experiment [4] is recorded as “no binding”.

B10: ADI-25532 (antibody, V domains shown)
VH: QVQLVQSGGGLVKPGGSLRLSCAASGFTFSSYSMNWVRQAPGKGLEWVSSISSSSSYIYYADSVKGRFTISRDNAKNSLYLQMNSLRAEDTAVYYCARGSSSSWYYFDYWGQGTLVTVSS
VL: QSVVTQPPSVSGAPGQRVTISCTGSSSNIGAGYDVHWYQQLPGTAPKLLIYGNSNRPSGVPDRFSGSKSGTSASLAITGLQAEDEADYYCQSYDSSLSYVFGTGTKVTVL
notes: full-length IgG
In turn, B10 had a Kd in experiment [1] of 1.56 nM. Further, in experiment [2], the “Neut IC50 subtype A” value was 0.04 µg/mL. The “Neut IC50 subtype B” value in experiment [3] was found to be 0.05 µg/mL. Besides, the binding result in experiment [4] is “no binding”.

B11: ADI-24828 (antibody, V domains shown)
VH: EVQLVESGGGLVKPGGSLRLACAASGFSFRSYRMNWVRQAPGKGLEWVSSISSSSSYIDYADSVKGRFTISRDNAKNTVYLQVNSLRAEDTAVYYCARDGRTIFGVVIDYWGQGTLVTVSS
VL: B10 VL with V4L, S54N, A76V, Y99V, T103G, V107L
notes: full-length IgG; also called Ab 390
In experiment [1], B11 returned a Kd of 0.391 nM. For the same molecule, the “Neut IC50 subtype A” value in experiment [2] amounted to 0.02 µg/mL. Moreover, the “Neut IC50 subtype B” value in experiment [3] was 0.04 µg/mL. Further, in experiment [4], the binding result is “no binding”.

B12: ADI-24839 (antibody, V domains shown)
VH: EVQLVESGGGLVKPGGSLRLSCAASGFTFSSYSMNWVRQAPGKGLEWVSSISSSSSYIYYADSVKGRFTISRDNAKNSLYLQMNSLRAEDTAVYYCARVLVATAYGNAFDIWGQGTMVTVSS
VL: B10 VL with V4L, S98T, Y99V, T103G, V107L
notes: full-length IgG
In experiment [1], B12 showed a Kd of 9.63 nM. Also, the “Neut IC50 subtype A” value in experiment [2] amounted to 0.44 µg/mL. The “Neut IC50 subtype B” value in experiment [3] stood at 4.1 µg/mL. Moreover, in experiment [4], the binding result is given as “no binding”.

B13: ADI-24842 (antibody, V domains shown)
VH: B2 VH with E6Q, S101P, D102H, F103D, W104Y, S105G, N109F
VL: B10 VL with G52R, T78I, Y99V, T103G, V107L
notes: full-length IgG
In turn, B13 gave a Kd in experiment [1] of 2.76 nM. In experiment [2], the “Neut IC50 subtype A” value came out at 0.03 µg/mL. Also, the “Neut IC50 subtype B” value in experiment [3] amounted to 0.03 µg/mL. For the same molecule, in experiment [4], the binding result is “no binding”.

B14: ADI-24819 (antibody, V domains shown)
VH: B10 VH with Q1E, V5L, Q6E, G99E, S101G, S103G
VL: B10 VL with V4L, S95G, Y99G, T103G
notes: full-length IgG
Molecule B14 returned a Kd in experiment [1] of 9.44 nM. In experiment [2], the “Neut IC50 subtype A” value came out at 4.33 µg/mL. Besides, in experiment [3], the “Neut IC50 subtype B” value was determined as 6.28 µg/mL. For the same molecule, the binding result in experiment [4] is “no binding”.

B15: ADI-25462 (antibody, V domains shown)
VH: B10 VH with Q1E, Q6E, D73H, Y105F, Y106C
VL: B10 VL with Q1S, S2Y, V4L, V107L
notes: full-length IgG
In experiment [1], B15 returned a Kd of 1.71 nM. The “Neut IC50 subtype A” value in experiment [2] worked out at 0.15 µg/mL. In experiment [3], the “Neut IC50 subtype B” value came to 0.11 µg/mL. The binding result in experiment [4] is recorded as “no binding”.

B16: ADI-24857 (antibody, V domains shown)
VH: B2 VH with Q1E, V5L, V99E, P100G, S101Y, D102Y, F103Y, W104G, Y107S, N109L
VL: B10 VL with Y99V, T103G, V107L
notes: full-length IgG
Turning to B16, binding in experiment [1] was put at a Kd of 3.71 nM. The “Neut IC50 subtype A” value in experiment [2] came to 0.18 µg/mL. For the same molecule, the “Neut IC50 subtype B” value in experiment [3] is 1.4 µg/mL. Moreover, the binding result in experiment [4] is on record as “no binding”.

B17: ADI-24814 (antibody, V domains shown)
VH: EVQLLESGGGVVQPGRSLRLSCAASGFTFNSYTMHWVRQAPGKGLEWVAVISYDGSNKYYADSVKGRFTISRDNSKNTLYLQMNSLRAEDTAVYYCARGRPYDFWSGYYTDYYYYMDVWGKGTTVTVSS
VL: EIVLTQSPGTLSLSPGERATLSCRASQSVYSNYLAWYQQKPGQAPRLLIYGASSRATGIPDRFSGSGSGTDFTLTISRLEPEDFAVYYCQQCGSSWTFGQGTKVEIK
notes: full-length IgG
Consider B17, for which the Kd in experiment [1] was 2.39 nM. Also, in experiment [2], the “Neut IC50 subtype A” value worked out at 0.73 µg/mL. Moreover, the “Neut IC50 subtype B” value in experiment [3] came to 0.32 µg/mL. The binding result in experiment [4] is listed as “no binding”.
